Substitutions are numbered along the chain they refer to. In names and notes the source's numbering stands.
T1: TwinStrep-BICD2 WT (mouse), Q921C5
T1 chain: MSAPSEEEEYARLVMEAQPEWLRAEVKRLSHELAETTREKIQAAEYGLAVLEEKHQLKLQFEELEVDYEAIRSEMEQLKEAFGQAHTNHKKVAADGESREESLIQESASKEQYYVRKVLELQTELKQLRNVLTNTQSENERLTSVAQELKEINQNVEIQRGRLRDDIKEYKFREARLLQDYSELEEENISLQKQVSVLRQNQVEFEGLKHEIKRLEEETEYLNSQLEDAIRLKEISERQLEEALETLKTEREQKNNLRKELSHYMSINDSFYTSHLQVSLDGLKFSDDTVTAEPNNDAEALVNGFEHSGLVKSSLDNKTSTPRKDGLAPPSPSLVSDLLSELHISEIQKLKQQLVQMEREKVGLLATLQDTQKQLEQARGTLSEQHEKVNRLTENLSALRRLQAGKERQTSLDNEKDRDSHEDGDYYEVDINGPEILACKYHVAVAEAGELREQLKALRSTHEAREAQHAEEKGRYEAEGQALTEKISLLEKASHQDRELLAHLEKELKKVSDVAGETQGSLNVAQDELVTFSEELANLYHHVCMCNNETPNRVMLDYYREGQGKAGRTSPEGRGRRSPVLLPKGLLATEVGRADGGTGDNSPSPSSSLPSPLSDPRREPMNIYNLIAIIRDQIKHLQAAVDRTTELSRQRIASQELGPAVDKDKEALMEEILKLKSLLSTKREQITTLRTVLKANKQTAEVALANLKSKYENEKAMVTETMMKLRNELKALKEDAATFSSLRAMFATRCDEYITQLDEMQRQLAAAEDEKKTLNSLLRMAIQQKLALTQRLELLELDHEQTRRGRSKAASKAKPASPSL

B1: TwinStrep-BICD2 WT, Q921C5 1-820 (natural protein)
chain: T1 chain
B2: TwinStrep-BICD2 S102D (natural protein)
chain: T1 chain with S102D

What was measured:
[1] = molecular target: T1, TwinStrep-BICD2 WT (mouse), Q921C5; assay: SEC-MALS; settings: remark: other sources report otherwise
SEC-MALS = molecular target: the molecule itself; assay: SEC-MALS

Row | Binder | stoichiometry N [1] | stoichiometry N (SEC-MALS)
1 | B1 | 2 | –
2 | B2 | – | 2

Reference: publication doi:10.1101/2021.11.04.467245 (bioRxiv, 2021)
